The source of these data is the nanobody polyreactivity screen of Harvey et al. (2022).

This data set can be described thus: yeast display, Sf9 membrane polyspecificity reagent, FACS + sequencing; frameworks hold sequencing errors. A digest of the protocol: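 Galactose induction of a Saccharomyces cerevisiae BJ5465 synthetic nanobody display library ran 36–48 hours. The cells were then stained for 1 hour at 4 °C with 10% biotinylated, detergent-solubilized Sf9 membrane reagent, pulled down on streptavidin microbeads and FACS-sorted into low and high (top ~1%) gates on expression and reagent-binding fluorescence. Labels for polyreactivity follow the gate of origin.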
Regarding “QVQLVESGGGLVQAGGSLRLSCAASGSIFSYYAMGWYRQAPGKERELVAAISSRGGSTYYADSVKGRFTISRDNAKKTVYLQMNSLKPEDTAVYYCAADWTSWFGVTYDYWGQGTQVTVSS”, the “polyreactivity (PSR sort gate)” value is listed as “high polyreactivity”.
The entry for “QVQLVESGGGLVQAGGSLRLSCAASGSIFSYYAMGWYRQAPGKERELVAAISWSGTSTYYADSVKGRFTISRDNAKNTVYLQMNSLKPEDTAVYYCNAGDNPIFDLGQGTQVTVSS” is “high polyreactivity”; for “QVQLVESGGGLVQAGGSLRLSCAASGSIFSYYAMGWYRQAPGKERELVAGISISTGSTYYADSVKGRFTISRDNAKNTVYLQMNSLKPEDNAVYYCAAAQDDGYSQDIYYQLSAYDYWGQGTQVTVSS” it is “low polyreactivity”; for “QVQLVESGGGLVQAGGSLRLSCAASGSIFSYYAMGWYRQAPGKERELVASITSGGSTNYADSVKGRFTISRDNAKNTVYLQMNSLKPEDTAVYYCNKDGKYHRVLYDYWGQGTQVTVSS” it is “low polyreactivity”.
The value for “QVQLVESGGGLVQAGGSLRLSCAASGSIFSYYAMGWYRQAPGKERELVAVISSSGGRTYYADSVKGRFTISRDNAKNTVYLQMNSLKPEDTAVYYCAAKYRVFYGFDYWGQGTQVTVSS” was “high polyreactivity”; that for “QVQLVESGGGLVQAGGSLRLSCAASGSIFSYYDMGWYRQAPGKERELVAGISRGGSTNYADSVKGRFTISRDNAKNTVYLQMNSLKPEDTAVYYCNADQSSRTYPFRRSRRSWLYGYWGQGTQVTVSS” was “low polyreactivity”.
The entry for “QVQLVESGGGLVQAGGSLRLSCAASGSIFSYYVKGWYRQAPGKERELVAVITDRGGRTYYADSVKGRFTISRDNAKNPVYLQMNSLKPEDTAVYYCNKYIRRYLIYGSWGQGTQVTVSS” is “high polyreactivity”; for “QVQLVESGGGLVQAGGSLRLSCAASGSIFTAYAMGWYRQAPGKERELVAAIDDSGDSTYYADSVKGRFTISRDNAKNTVYLQMNSLKPEDTAVYYCKAEYRVNKEYDYWGQGTQVTVSS” it is “low polyreactivity”; for “QVQLVESGGGLVQAGGSLRLSCAASGSIFTDNAMGWYRQAPGKERELVAGISYNGDNTYYADSVKGRFTISRDNAKNTVYLQMNSLKPEDTAVYYCAAADGIIESDYWGQGTQVTVSS” it is “low polyreactivity”.
With “QVQLVESGGGLVQAGGSLRLSCAASGSIFTFNAMGWYRQAPGKERELVAAISTGGNTYYADSVKGRFTISRDNAKNTVYLQINSLKPEDTAVFYCAAVRRTDGDGKYYYWGQGTQVTVSS”, the “polyreactivity (PSR sort gate)” value is reported as “high polyreactivity”.
The entry for “QVQLVESGGGLVQAGGSLRLSCAASGSIFTFYAMGWYRQAPGKERELVAAISSGGRTYYADSVKGRFTISRDNAKNTVYLQMNSLKPEDTAVYYCAASYQQYFYRYALPADYYYWGQGTQVTVSS” is “high polyreactivity”; for “QVQLVESGGGLVQAGGSLRLSCAASGSIFTFYAMGWYRQAPGKERELVATINRIGGNTYYADSVKGRFTISRDNAKNSVYLLMKSLKPEETAVYYCAVCPYTRPYYRTFDHWGQGTLVTVSS” it is “low polyreactivity”.
For “QVQLVESGGGLVQAGGSLRLSCAASGSIFTFYAMGWYRQAPGKERELVATINRIGGNTYYADSVKGRFTISRDNAKNTVYFQMNSLKPEDTAVYYCAADRSAWGSNWETQFDYWGQGTQVTVSS”, the “polyreactivity (PSR sort gate)” value is on record as “low polyreactivity”.
The entry for “QVQLVESGGGLVQAGGSLRLSCAASGSIFTFYTMGWYRQAPGKERELVAAINWSGSRTYYADSVKGRFTISRDNAKNTVYLQMNSLIQEDTAVYYCNVRCYYKRRYGWYSYRYGYWGQGTQVTVSS” is “high polyreactivity”; for “QVQLVESGGGLVQAGGSLRLSCAASGSIFTGYAMGWYRQAPGKERELVAAISYSTGRTYYADSVKGRFTISRDNAKNTVYLQMNSLKPEDTAVYYCAARYREQYDYWGQGTQVTVSS” it is “low polyreactivity”.
The entry for “QVQLVESGGGLVQAGGSLRLSCAASGSIFTGYDMGWYRQAPGKERELVAVISTAGRTYYADSVKGRFTISRDNAKNTVYLQMNSLKPEDTAVYYCAKRSYSKDQPRYGYWGQGTQVTVSS” is “low polyreactivity”.
The value for “QVQLVESGGGLVQAGGSLRLSCAASGSIFTIYAMGWYRQAPGKERELVAAISFSGGSTYYADSVKGRFTISRDNAKNTVYLQMNSLKPEDTAVYYCAADGGFTYDNWGQGTQVTVSS” was “low polyreactivity”; that for “QVQLVESGGGLVQAGGSLRLSCAASGSIFTIYAMGWYRQAPGKERELVATITGGGGSTYYADSVKGRFTISRDNAKNTVYLQMNSLKPEDTAVYYCATDFRRTRSYGNSRSYGYWGQGTQVTVSS” was “low polyreactivity”; that for “QVQLVESGGGLVQAGGSLRLSCAASGSIFTKYAMGWYRPAPGKERELVAAISYSGGTRTYYADSVKGRFTSSRDNAKNTVYLQMNSLKPEDTAVYYCAARRYTRRANPAYPYEYWGQGTQVTVSS” was “high polyreactivity”.
As to “QVQLVESGGGLVQAGGSLRLSCAASGSIFTKYAMGWYRQAPGKEREFVAAITLSGGSTYYADSVKGRFTIGRDNAKNTVYLQMNSLKPEDTAVYYCNAAYTYVTAWYYYWGQGTQVTVSS”, the “polyreactivity (PSR sort gate)” value is “high polyreactivity”.
The entry for “QVQLVESGGGLVQAGGSLRLSCAASGSIFTLYAMGSYRQAPGKERELVAAITWSGGSTYYADSVKGRFTISRDNAKNTVYLQMNSLKPEDTAVYYCAKDYLAGGPWEGHVEREYDYWGQGTQVTVSS” is “low polyreactivity”.
Regarding “QVQLVESGGGLVQAGGSLRLSCAASGSIFTLYAMGWYRQAPGKETELVAVISSSGGRTYYADSVKGRFTISRDNAKNTVYLQMNSLKPEDTAVYYGAARGYGATYDYWGQGTQVTVSS”, the “polyreactivity (PSR sort gate)” value is “high polyreactivity”.
Regarding “QVQLVESGGGLVQAGGSLRLSCAASGSIFTNAMGWYRQAPGKERELVAAISSTGGSTYYADSVKGRFTISRDNAKNTVYLQMYSLKPEDTAVYYCAADHYGGRDYWGQGTQLTVSS”, the “polyreactivity (PSR sort gate)” value is on record as “low polyreactivity”.
On to “QVQLVESGGGLVQAGGSLRLSCAASGSIFTNNAMGWYRHAPGKERELVAAISRGGSTYYADSVKGRFTISRDIAKNTDFIQMNSLIPEDTAVYYCNARRYRHDGYWGQGTQVTVSS”, for which the “polyreactivity (PSR sort gate)” value is reported as “high polyreactivity”.
The entry for “QVQLVESGGGLVQAGGSLRLSCAASGSIFTNNAMGWYRQAPGKERELVAGINISGDSTYYADSVKGRFTISRDNAKNTVYLQMNSLKPEDTAVYYCAAGDGYAGIYDYWGQGTQVTVSS” is “low polyreactivity”; for “QVQLVESGGGLVQAGGSLRLSCAASGSIFTPNVKGRYRQAPGKERELVAAISQSGGSTFYADSVKGRFSFSRDNAKKTVYLQMNSLKPEDTAVYYCASEYYGPVYDLDFDYWGQGTQVTVSS” it is “low polyreactivity”.
The value for “QVQLVESGGGLVQAGGSLRLSCAASGSIFTPNVMGWYRHAPGKERELVAAISQSGGSTFYADSVKGRFTISRDNAKNTVYLQMNSLKPEDTAVYYCNVDDNSEYDYWGQGSQVTVSS” was “low polyreactivity”; that for “QVQLVESGGGLVQAGGSLRLSCAASGSIFTPNVMGWYRQEPGKERELVAAISQRGGSTYYADSVKGRFTLSRDNAKNTVYLQMNSLKPEDTAVYYCNKDNAVDRLPWFQVTYDYWGQGTQVTVSS” was “low polyreactivity”; that for “QVQLVESGGGLVQAGGSLRLSCAASGSIFTPYAMGWYRQAPGKERELVAAITYSGGSTYYADSVKGRFTISRDNAKNTVYLLMNSLKPEDTAVYYCAAYFNIYGLEYDYWGQGTQVTVSS” was “high polyreactivity”.
Consider “QVQLVESGGGLVQAGGSLRLSCAASGSIFTPYAMGWYRQAPGKERELVADIDASGGGTYADSVKGRFTISRDNAKNTVYLQMNSLKPEDTAVFYCNADTGIWDYRFVDRDYWGQGTQVTVSS”, for which the “polyreactivity (PSR sort gate)” value is “low polyreactivity”.
The value for “QVQLVESGGGLVQAGGSLRLSCAASGSIFTQYAMGWYRQAPGKERELVAAISWRGGRTYYADSVKGRFTISRDNAKNTVYLQMNSLKPEDTAVYYCNRVYGAHHYYYGIGTYDYWGQGTQVTVSS” was “high polyreactivity”.
The value for “QVQLVESGGGLVQAGGSLRLSCAASGSIFTRNAMGWYRQAPGKERELVATIRKNGASTTYADSVKGRFTISRDNAKNTVYLQMNSLKQEDTAVYYCARDHHTKYNYWGQGTQVTVSS” was “low polyreactivity”; that for “QVQLVESGGGLVQAGGSLRLSCAASGSIFTRYAMGWYRQAPGKEREFVAAITTRGGSTYYADSVKGRFTISRDNAKNTVYLQMNSLKPEDTAVYYCNTRGKSGLWWYNYWGQGTQVTVSS” was “high polyreactivity”.
The value for “QVQLVESGGGLVQAGGSLRLSCAASGSIFTRYAMGWYRQAPGKERELVAAISQSGGNTYYADSVKGRFTISRDNAKNTVYLQMNSLKPEDTAVYYCAARWPWTHTRGYWGQGTQVTVSS” was “high polyreactivity”; that for “QVQLVESGGGLVQAGGSLRLSCAASGSIFTRYAMGWYRQAPGKERELVAAISWIGTRTYYADSVKGRFTISRDNAKNTVYLQMNSLKPEDTAVYYCNAVSKVERYSYPHGRPFEYWGQGTQVTVSS” was “high polyreactivity”; that for “QVQLVESGGGLVQAGGSLRLSCAASGSIFTSNAMGWYRQAPGKERELVAAITSDGAITYADSVKGRFTISRDNAKNTVYLQMNSLKPEDTAVYYCATEIEYYVGSVADMGYWGQGTQVTVSS” was “low polyreactivity”.
Regarding “QVQLVESGGGLVQAGGSLRLSCAASGSIFTSYAMGWYRQAPGKERELVAAISRSGARTYYADSVKGRFTISRDNAKNTVYLLMNCLKPEDTAVYYCAAVHWRTTGGYDYWGQGTQVTVSS”, the “polyreactivity (PSR sort gate)” value is “high polyreactivity”.
The entry for “QVQLVESGGGLVQAGGSLRLSCAASGSIFTSYAMGWYRQAPGKERELVAAISSSGSTYYADSVKGRFTISRDNAKNTVYLQMNSLKPEDTAVYYCNADSRTAGLNSEYDYWGQGTQVTVSS” is “low polyreactivity”; for “QVQLVESGGGLVQAGGSLRLSCAASGSIFTTNTMGWYRQAPGKERELVAAISSGGGTHYADSVKGRFTISRDNAKNTVYLQMNSLKPEDTAVYYCDARSYYYEWFGDVAMYYWGQGTQVTVSS” it is “low polyreactivity”.
The entry for “QVQLVESGGGLVQAGGSLRLSCAASGSIFTTYAMGWYRQAPGKERELVAAISRAGDTTYADSVKGRFTISRDNAKNTVYLQRNSLKPEDTAVYYWGQGTQVTVSS” is “low polyreactivity”.
The entry for “QVQLVESGGGLVQAGGSLRLSCAASGSIFTVNAMGWYRQAPGKERELVAAITFGGGRTYYADSVKGRFTISRDNAKNTVYLQMNSLKPEDTSVYYCAVSRKGLGSVEYWGQGTQVTVSS” is “low polyreactivity”.
